Test results reported in patent publication US20190111114A1 (BRIGHAM AND WOMEN S HOSPITAL, published 2019).

Target: T1, BCL11A, endogenous, in mouse erythroid (MEL) cells (mouse, UniProt Q9QYE3 1-835, limits assumed)
T1 sequence (looked up): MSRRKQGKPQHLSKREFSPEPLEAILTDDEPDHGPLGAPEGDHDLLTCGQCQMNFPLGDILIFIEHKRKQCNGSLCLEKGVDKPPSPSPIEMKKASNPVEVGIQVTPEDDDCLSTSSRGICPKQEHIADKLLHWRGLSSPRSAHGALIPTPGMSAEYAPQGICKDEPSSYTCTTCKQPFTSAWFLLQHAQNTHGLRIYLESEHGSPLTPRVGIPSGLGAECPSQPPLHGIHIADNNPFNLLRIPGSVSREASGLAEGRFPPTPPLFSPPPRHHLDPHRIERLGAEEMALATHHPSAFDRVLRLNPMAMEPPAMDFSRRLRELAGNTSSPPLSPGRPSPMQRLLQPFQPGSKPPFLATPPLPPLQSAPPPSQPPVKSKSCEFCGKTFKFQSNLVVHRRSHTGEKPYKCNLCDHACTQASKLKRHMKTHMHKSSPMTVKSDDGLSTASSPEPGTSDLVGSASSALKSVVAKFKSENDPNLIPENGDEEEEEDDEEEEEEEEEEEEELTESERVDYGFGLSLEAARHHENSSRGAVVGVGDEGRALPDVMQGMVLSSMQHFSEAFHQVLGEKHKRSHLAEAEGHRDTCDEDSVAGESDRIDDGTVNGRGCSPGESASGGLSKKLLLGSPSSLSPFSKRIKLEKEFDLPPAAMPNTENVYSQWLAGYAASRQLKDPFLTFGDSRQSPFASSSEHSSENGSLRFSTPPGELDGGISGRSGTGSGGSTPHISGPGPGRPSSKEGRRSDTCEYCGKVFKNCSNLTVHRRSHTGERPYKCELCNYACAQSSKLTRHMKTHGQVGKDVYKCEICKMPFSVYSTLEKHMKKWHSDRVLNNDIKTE
Assay: immunoprecipitation of tagged mouse LRF from MEL cells, Western blot
Text: FKPM values were obtained from RNA-Seq experiments. (B) Validation of Y2H results by IP. […] Protein samples from empty vector-transfected cells served as negative controls. (C) LRF/GATAD2B interaction was validated in mouse erythroleukemia (MEL) cells. Applicants generated a series of expression vectors encoding N- or C-terminally-tagged mouse LRF (mLRF) and performed IP in MEL cells. Applicants could pull-down NuRD components and endogenous LRF protein only when Applicants expressed the LRF tagged at the far C-terminus. Anti-HA antibody could pull down both endogenous and exogenous LRF plus NuRD components (far right lane), while antibody against Flag, which was placed 15 aa upstream of the HA tag, pulled down only exogenous LRF (2nd lane from the left). Although Applicants tested 5 different (2 original and 3 commercially-available) anti-LRF antibodies for IP in mouse cells, none could pull down endogenous mouse LRF protein. Native LRF in the large NuRD complex may be inaccessible to anti-LRF antibodies in mouse cells (a model shown on right). Applicants note that the BCL11A image is from a different membrane. (D) Knockout of LRF or BCL11A was confirmed by Western blot using anti-LRF or -BCL11A antibodies. GAPDH: loading control. (E) Relative copy number of indicated β-globin transcripts was determined by q-PCR, as described in FIG. 8C. […]

- binding result: no binding
B1: mouse LRF tagged at the far C-terminus with Flag and HA (pMX-mCherry-FHC-mLRF), expressed in MEL cells (other, UniProt O88939 1-569, looked up)
chain: MAGGVDGPIGIPFPDHSSDILSGLNEQRTQGLLCDVVILVEGREFPTHRSVLAACSQYFKKLFTSGAVVDQQNVYEIDFVSAEALTALMDFAYTATLTVSTANVGDILSAARLLEIPAVSHVCADLLERQILAADDVGDASQPDGAGPTDQRNLLRAKEYLEFFRSNPMNSLPPTAFPWSGFGAPDDDLDATKEAVAAAVAAVAAGDCNGLDFYGPGPPADRPPAGDGDEGDSTPGLWPERDEDAPPGGLFPPPTAPPATTQNGHYGRAGAGTGEEEAAALSEAAPEPGDSPGFLSGAAEGEDGDAADVDGLAASTLLQQMMSSVGRAGDSDEESRTDDKGVMDYYLKYFSGAHEGDVYPAWSQKGEKKIRAKAFQKCPICEKVIQGAGKLPRHIRTHTGEKPYECNICKVRFTRQDKLKVHMRKHTGEKPYLCQQCGAAFAHNYDLKNHMRVHTGLRPYQCDSCCKTFVRSDHLHRHLKKDGCNGVPSRRGRKPRVRGVPPDVPAGAGAPPGLPDAPRNGQEKHFKDEEEDEEEASPDGSGRLNVAGSGGDDGAGGPAVATAEGNFAT
notes: also called exogenous LRF; not shown: Flag and HA tags at the 3' end of the cDNA, Flag placed 15 aa upstream of the HA tag
